# B1: Peroxisomal biogenesis factor 3 (Saccharomyces cerevisiae), P28795 (parent)
# chain: MAPNQRSRSLLQRHRGKVLISLTGIAALFTTGSVVVFFVKRWLYKQQLRITEQHFIKEQIKRRFEQTQEDSLYTIYELLPVWRMVLNENDLNLDSIVTQLKDQKNQLTRAKSSESRESSPLKSKAELWNELELKSLIKLVTVTYTVSSLILLTRLQLNILTRNEYLDSAIKLTMQQENCNKLQNRFYNWVTSWWSDPEDKADDAMVMAAKKSKKEGQEVYINEQAFLSLSWWILNKGWLSYNEIITNQIEIEFDGIHPRDTLTLEEFSSRLTNIFRNTNSQIFQQNNNNLTSILLPKDSSGQEFLLSQTLDADALTSFHSNTLVFNQLVNELTQCIESTATSIVLESLINESFHFIMNKVGIKTIAKKKPGQEDQQQYQMAVFAMSMKDCCQEMLQTTAGSSHSGSVNEYLATLDSVQPLDDLSASVYSNFGVSSSFSFKP
# partner: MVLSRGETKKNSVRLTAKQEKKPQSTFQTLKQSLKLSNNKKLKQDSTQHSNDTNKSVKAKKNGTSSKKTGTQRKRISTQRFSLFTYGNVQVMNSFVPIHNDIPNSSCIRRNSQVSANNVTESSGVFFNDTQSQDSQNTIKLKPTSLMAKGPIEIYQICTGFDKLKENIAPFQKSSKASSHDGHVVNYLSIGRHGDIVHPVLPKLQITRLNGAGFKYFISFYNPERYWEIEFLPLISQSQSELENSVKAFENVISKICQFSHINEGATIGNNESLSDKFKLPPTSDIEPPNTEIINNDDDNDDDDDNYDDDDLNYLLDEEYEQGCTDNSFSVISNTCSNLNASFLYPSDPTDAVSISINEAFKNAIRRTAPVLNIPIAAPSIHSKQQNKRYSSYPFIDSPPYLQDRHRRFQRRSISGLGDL
# Variants of: B1
# Conditions: with inp1_yeast INP1, Q03694
row,Variant,effect of a mutation on the interaction
1,V81E,disrupting interaction

# Variants of: B1
# Conditions: with inp1_yeast INP1, Q03694
# Remark: another data set of the same source
row,Variant,effect of a mutation on the interaction
1,N188I,decreasing interaction

# From IntAct's records for PubMed 23900285
